Laboratory results: article PMC6780499, “Characterization, Recombinant Production and Structure-Function Analysis of NvCI, A Picomolar Metallocarboxypeptidase Inhibitor from the Marine Snail Nerita versicolor” (Marine Drugs, 2019)
No end group written: not given here.

Experiments:
Experiment in all cases: Ki, residual activity
bTAFI = target: T1, bTAFI (Bos taurus (Bovine), UniProt Q2KIG3)
T1 chain: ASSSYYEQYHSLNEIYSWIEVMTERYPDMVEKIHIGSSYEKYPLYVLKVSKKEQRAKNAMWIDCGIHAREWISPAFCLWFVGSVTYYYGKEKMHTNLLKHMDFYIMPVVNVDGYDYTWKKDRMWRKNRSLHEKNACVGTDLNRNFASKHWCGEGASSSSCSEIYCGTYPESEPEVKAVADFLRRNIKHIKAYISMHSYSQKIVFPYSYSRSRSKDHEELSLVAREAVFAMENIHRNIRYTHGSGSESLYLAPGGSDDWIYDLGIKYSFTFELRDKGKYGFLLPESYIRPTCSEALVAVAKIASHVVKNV

hCPA2 = target: T2, hCPA2 (Homo sapiens (Human), UniProt P48052)
T2 chain: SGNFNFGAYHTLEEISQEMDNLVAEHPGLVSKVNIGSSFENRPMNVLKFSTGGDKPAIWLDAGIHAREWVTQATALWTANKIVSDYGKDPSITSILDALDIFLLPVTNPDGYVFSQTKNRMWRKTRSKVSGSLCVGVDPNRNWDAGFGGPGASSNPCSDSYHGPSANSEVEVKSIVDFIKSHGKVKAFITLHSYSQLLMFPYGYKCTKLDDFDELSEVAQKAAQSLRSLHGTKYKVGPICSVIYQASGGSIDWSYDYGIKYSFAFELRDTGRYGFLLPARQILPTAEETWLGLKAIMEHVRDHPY

hTAFI = target: T3, hTAFI (Homo sapiens (Human), UniProt Q96IY4)
T3 chain: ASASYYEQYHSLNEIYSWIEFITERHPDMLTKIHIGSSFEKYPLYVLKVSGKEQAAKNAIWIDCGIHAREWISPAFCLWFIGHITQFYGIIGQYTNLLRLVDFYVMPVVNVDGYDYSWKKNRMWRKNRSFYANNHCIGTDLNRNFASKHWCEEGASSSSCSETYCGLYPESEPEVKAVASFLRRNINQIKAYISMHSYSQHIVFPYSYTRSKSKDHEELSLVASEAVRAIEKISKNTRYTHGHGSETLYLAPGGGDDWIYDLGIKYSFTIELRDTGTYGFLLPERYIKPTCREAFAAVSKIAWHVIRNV

hCPD = target: T4, hCPD (Homo sapiens (Human), UniProt O75976)
T4 chain: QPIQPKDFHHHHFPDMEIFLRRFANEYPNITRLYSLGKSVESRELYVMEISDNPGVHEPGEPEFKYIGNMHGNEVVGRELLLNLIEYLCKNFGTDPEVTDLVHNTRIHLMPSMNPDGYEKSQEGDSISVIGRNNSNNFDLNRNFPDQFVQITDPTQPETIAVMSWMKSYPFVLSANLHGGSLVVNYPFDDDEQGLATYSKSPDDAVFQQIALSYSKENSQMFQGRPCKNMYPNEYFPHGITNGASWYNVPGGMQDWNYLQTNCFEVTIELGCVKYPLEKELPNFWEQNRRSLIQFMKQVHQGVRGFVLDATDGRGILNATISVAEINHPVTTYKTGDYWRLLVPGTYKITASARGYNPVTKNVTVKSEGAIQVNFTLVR

hCPB = target: T5, hCPB (Homo sapiens (Human), UniProt P15086)
T5 chain: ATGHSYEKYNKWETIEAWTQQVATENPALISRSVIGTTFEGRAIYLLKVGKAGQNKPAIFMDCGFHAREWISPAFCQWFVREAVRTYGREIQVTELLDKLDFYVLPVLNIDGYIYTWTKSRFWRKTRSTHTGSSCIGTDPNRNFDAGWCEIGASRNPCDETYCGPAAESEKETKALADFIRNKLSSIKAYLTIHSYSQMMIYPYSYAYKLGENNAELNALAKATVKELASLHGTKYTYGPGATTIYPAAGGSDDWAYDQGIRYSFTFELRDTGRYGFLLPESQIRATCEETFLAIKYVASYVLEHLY

rCPA3 = target: T6, rCPA3 (Rattus norvegicus (Rat), UniProt P21961)
T6 chain: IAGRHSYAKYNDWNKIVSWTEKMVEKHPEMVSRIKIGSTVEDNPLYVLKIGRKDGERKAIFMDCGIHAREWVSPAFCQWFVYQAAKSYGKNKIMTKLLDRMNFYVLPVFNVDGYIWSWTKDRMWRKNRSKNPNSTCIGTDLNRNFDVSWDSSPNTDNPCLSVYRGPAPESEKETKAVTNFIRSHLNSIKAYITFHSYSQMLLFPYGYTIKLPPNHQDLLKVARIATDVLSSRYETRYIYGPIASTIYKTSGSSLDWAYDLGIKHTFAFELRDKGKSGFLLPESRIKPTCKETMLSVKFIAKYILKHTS

bCPA1 = target: T7, bCPA1 (Bos taurus (Bovine), UniProt P00730)
T7 chain: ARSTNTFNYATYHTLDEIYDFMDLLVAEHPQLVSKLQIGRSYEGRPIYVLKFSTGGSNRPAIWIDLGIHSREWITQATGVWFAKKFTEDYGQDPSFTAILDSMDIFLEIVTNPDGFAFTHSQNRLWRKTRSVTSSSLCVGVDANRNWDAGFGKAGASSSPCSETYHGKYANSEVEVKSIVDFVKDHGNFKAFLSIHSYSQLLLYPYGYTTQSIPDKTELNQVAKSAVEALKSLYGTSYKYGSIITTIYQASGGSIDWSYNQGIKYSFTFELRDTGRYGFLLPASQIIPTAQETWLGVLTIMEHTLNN

hCPZ = target: T8, hCPZ (Homo sapiens (Human), UniProt Q66K79)
T8 chain: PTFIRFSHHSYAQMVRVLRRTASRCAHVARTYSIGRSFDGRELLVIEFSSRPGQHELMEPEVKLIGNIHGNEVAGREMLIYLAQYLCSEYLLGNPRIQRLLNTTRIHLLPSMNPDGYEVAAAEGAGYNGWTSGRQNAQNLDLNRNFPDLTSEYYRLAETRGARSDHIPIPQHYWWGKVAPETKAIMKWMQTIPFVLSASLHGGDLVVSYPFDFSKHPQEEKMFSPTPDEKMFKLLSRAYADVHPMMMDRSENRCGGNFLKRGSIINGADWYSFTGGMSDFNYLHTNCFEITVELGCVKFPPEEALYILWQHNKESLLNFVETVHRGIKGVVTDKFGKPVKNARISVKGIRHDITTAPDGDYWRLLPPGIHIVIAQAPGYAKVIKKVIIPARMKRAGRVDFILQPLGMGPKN

B1: NvCI (protein)
chain: FHVPDDRPCINPGRCPLVPDATCTFVCKAADNDFGYECQHVWTFEGQRVGCYA
modifications: disulfide (positions not given here); not fully specified (bridges); ends not checked
Q: Which results are given for B1?
A: Kd (bTAFI): 0.0841 nM; Kd (hCPA2): 2.94 nM; Kd (hTAFI): 0.951 nM; Kd (hCPD): > 1000 nM; Kd (hCPB): 0.549 nM; Kd (rCPA3): 0.1 nM; Kd (bCPA1): 0.0058 nM; Kd (hCPZ): > 1000 nM
